# B1: peptide P9 (2-14) (SEQ ID NO: 48) (peptide)
# peptide: HRCFHFRRHPVAV
# notes: Amino acids 2-14 of P9
# B2: peptide P9 (1-14) (SEQ ID NO: 46) (peptide)
# peptide: CHRCFHFRRHPVAV
# notes: Amino acids 1-14 of P9
# B3: peptide P9 (2-13) (SEQ ID NO: 49) (peptide)
# peptide: HRCFHFRRHPVA
# notes: Amino acids 2-13 of P9
# B4: peptide P9 (2-15) (SEQ ID NO: 45) (peptide)
# peptide: HRCFHFRRHPVAVF
# notes: Amino acids 2-15 of P9
# B5: peptide P9 (1-13) (SEQ ID NO: 47) (peptide)
# peptide: CHRCFHFRRHPVA
# notes: Amino acids 1-13 of P9
# B6: peptide P9 (1-13; 1 Ser) (SEQ ID NO: 53) (peptide)
# peptide: SHRCFHFRRHPVA
# notes: Amino acids 1-13 of P9 with Cys 1 replaced by Ser
# B7: peptide P9 (3-14) (SEQ ID NO: 50) (peptide)
# peptide: RCFHFRRHPVAV
# notes: Amino acids 3-14 of P9
# B8: peptide P9 (14 Ala) (SEQ ID NO: 52) (peptide)
# peptide: CHRCFHFRRHPVAAF
# notes: P9 with Val 14 replaced by Ala
# B9: peptide P9 (15 Ala) (SEQ ID NO: 51) (peptide)
# peptide: CHRCFHFRRHPVAVA
# notes: P9 with Phe 15 replaced by Ala
# B10: peptide P2 (SEQ ID NO: 2) (peptide)
# peptide: ARWMHRHHGWSDRHR
# B11: peptide P1 (SEQ ID NO: 1) (peptide)
# peptide: RKLRPHWLHFHPVAV
# Molecular target: T1, human IL-10 (hIL-10) (human, UniProt P22301 19-178)
# T1 construct: also called human recombinant protein IL-10 (R & D Systems, cat No. 217-IL/CF); hIL-10 (e-Bioscience)
# Test: SPR (BIAcore X), human IL-10 immobilized on CM5 chip, peptide 10 µM injected
# Protocol: To perform this assay, the Biosensor BIAcore X (BIAcore, AB, Uppsala, Sweden) was used. Briefly, human recombinant protein IL-10 (R & D Systems, cat No. 217-IL/CF) was covalently immobilized on the surface of flow cell 2 (FC2) of a CM5 chip (BIAcore), as described in De Crescenzo et al. 2001 (JBC, Vol 276; 29632-29643). Flow cell 1 (FC1), on the surface of which IL-10 is not immobilized, was used as a reference flow cell. The peptide solutions (10 μM) were injected at least twice in 10 mM Hepes buffer, pH 7.4, 150 mM NaCl, 0.005% Tween 20 (Polyoxyethylene Sorbitan Monolaurate) at a flow of 30 μl/min. The binding curves were processed by means of subtracting the response in FC1 from that obtained in FC2. The response in equilibrium was compared between the test peptide and an irrelevant control peptide of the same length. The control peptide used was peptide P301 (SEQ ID NO: 54) (derived from the HIV-1 coat, gp120 (301-315): […]). Each response was multiplied by a mass correction factor: MW(PX)/MW(P), where MW(PX) is the molecular weight of the test peptide P and MW(P) is the molecular weight of the control peptide (P301).
# T1 sequence (P22301 19-178 limits assumed): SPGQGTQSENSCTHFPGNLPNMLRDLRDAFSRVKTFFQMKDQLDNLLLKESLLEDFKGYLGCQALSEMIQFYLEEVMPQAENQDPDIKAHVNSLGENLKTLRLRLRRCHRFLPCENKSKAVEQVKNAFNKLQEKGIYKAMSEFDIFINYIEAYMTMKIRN
row,binding result,Binder
1,binds,B1
2,binds,B2
3,binds,B3
4,binds,B4
5,binds,B5
6,binds,B6
7,binds,B7
8,binds,B8
9,binds,B9

# Molecular target: biotinylated IL-10 (Homo sapiens (Human)) (UniProt P22301)
# Test: phage display biopanning, 3 rounds on biotinylated IL-10 on streptavidin plates; clones sequenced
# Sequence of biotinylated IL-10 (Homo sapiens (Human)) (P22301 19-178 limits assumed, form in doubt): as the sequence (P22301 19-178 limits assumed) above
row,No. of colonies [colonies],Binder
1,29,B10
2,25,B11
